Data reported in patent US20260227403A1 (HENRY M JACKSON FOUNDATION FOR THE ADVANCEMENT OF MILITARY …, published 2026).

Tests used:
Assay in all cases: ELISA: 1 µg peptide coated per well, 29E4 at 20 ng/mL, HRP goat anti-rabbit Ig 1:16,000, ABS 450 nm, duplicates [CONT. 1]
P35 = target: T1, P35
T1 construct: C-terminal truncation of P1
T1 peptide: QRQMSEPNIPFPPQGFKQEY

P36 = target: T2, P36
T2 construct: C-terminal truncation of P1
T2 peptide: QRQMSEPNIPFPPQGFKQE

P37 = target: T3, P37
T3 construct: C-terminal truncation of P1
T3 peptide: QRQMSEPNIPFPPQGFKQ

peptide P40 (…) = target: T4, peptide P40 (…) (human)
T4 construct: N-terminal truncation of the immunogenic peptide P1

P34 = target: T5, P34
T5 construct: C-terminal truncation of P1
T5 peptide: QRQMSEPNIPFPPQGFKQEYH

P33 = target: T6, P33
T6 construct: C-terminal truncation of P1
T6 peptide: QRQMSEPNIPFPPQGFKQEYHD

P41 = target: T7, P41
T7 construct: N-terminal truncation of P1
T7 peptide: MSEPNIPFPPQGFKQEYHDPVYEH

P31 = target: T8, P31
T8 construct: C-terminal truncation of P1
T8 peptide: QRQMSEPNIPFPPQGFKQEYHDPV

P32 = target: T9, P32
T9 construct: C-terminal truncation of P1
T9 peptide: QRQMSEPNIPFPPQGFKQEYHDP

P49 = target: T10, P49
T10 construct: C-terminal truncation of P1
T10 peptide: QRQMSEPNIPFPPQ

P29 = target: T11, P29
T11 construct: C-terminal truncation of P1

P30 = target: T12, P30
T12 construct: C-terminal truncation of P1

P50 = target: T13, P50
T13 construct: C-terminal truncation of P1
T13 peptide: QRQMSEPNIPFPP

P42 = target: T14, P42
T14 construct: N-terminal truncation of P1
T14 peptide: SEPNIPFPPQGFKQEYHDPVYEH

P48 = target: T15, P48
T15 construct: C-terminal truncation of P1
T15 peptide: QRQMSEPNIPFPPQG

P39 = target: T16, P39
T16 construct: N-terminal truncation of P1

[1] = target: T17, peptide P38 (QRQMSEPNIPFPPQGFK) (human)
T17 construct: C-terminal truncation of the immunogenic peptide P1
T17 peptide: QRQMSEPNIPFPPQGFK

Measured: binding result

B1: ETV1 rabbit monoclonal antibody (29E4) (antibody, V domains shown)
VH: QELEESGGDLVKPGASLTLTCTASGFFFSAENHICWVRQAPGKGLEWIGCVYIGSYVGGSGDPYYASWAKGRFTISKTSSTTVTLQMSSLTAADTATYFCARDLGSLWGPGTLVTVSS
VL: DVVMTQTASSVSAAVGGTVTIACQSSQSVYDNNNLAWFQQKPGQPPKRLIYSASTLASGVSSRFKGSGYGTQFTLTISDVQCDDAATYYCVGAFSGYIFVFGGGTEVVVK
notes: constant regions are not; also called 29E4 mAb; ETV1 29E4 mAb
binds: all assays above
